A value given as a limit tells only on which side of the number the result lay.

Data set [1] deals with the molecule itself. The data set can be described thus: SEC; Superdex 200 10/300 analytical column in stabilizing buffer (50 mM Tris pH 7 or 50 mM Hepes pH 8 with 100 mM and 10% glycerol); apparent MW against standards; G80R in dark and light state.
Data set [2] deals with the molecule itself. Kind of data set: SEC; R95A at 130 µM and 13 µM, dark and light state; elution not concentration dependent; dimer to monomers.

B1: FKF1 28–174 (FLAVIN-BINDING, KELCH REPEAT, F-BOX 1 LOV domain) (domain or fragment, Arabidopsis thaliana, UniProt Q9C9W9 28-174, looked up)
chain: NDGIEEQVEDEKLPLEVGMFYYPMTPPSFIVSDALEPDFPLIYVNRVFEVFTGYRADEVLGRNCRFLQYRDPRAQRRHPLVDPVVVSEIRRCLEEGIEFQGELLNFRKDGTPLVNRLRLAPIRDDDGTITHVIGIQVFSETTIDLDR
notes: source: purified protein
For B1, in data set [1], the “stoichiometry N” value came out at 2.

B2: ZTL 16–165 (domain or fragment, Arabidopsis thaliana, UniProt Q94BT6 16-165, looked up)
chain: SLADDEEGGLFPGGGPIPYPVGNLLHTAPCGFVVTDAVEPDQPIIYVNTVFEMVTGYRAEEVLGGNCRFLQCRGPFAKRRHPLVDSMVVSEIRKCIDEGIEFQGELLNFRKDGSPLMNRLRLTPIYGDDDTITHIIGIQFFIETDIDLGP
notes: source: purified protein
Consider B2, for which, in data set [1], the “stoichiometry N” value amounted to 2.

B3: WT ZTL 29–165 (ZEITLUPE LOV domain construct ZTL-S) (domain or fragment, Arabidopsis thaliana, UniProt Q94BT6 29-165, looked up)
chain: GGPIPYPVGNLLHTAPCGFVVTDAVEPDQPIIYVNTVFEMVTGYRAEEVLGGNCRFLQCRGPFAKRRHPLVDSMVVSEIRKCIDEGIEFQGELLNFRKDGSPLMNRLRLTPIYGDDDTITHIIGIQFFIETDIDLGP
notes: also called ZTL LOV domain
For B3, in data set [1], the “stoichiometry N” value was 2.

B4: ZTL 29–165 R95A (domain or fragment, Arabidopsis thaliana, UniProt Q94BT6 29-165, looked up)
chain: GGPIPYPVGNLLHTAPCGFVVTDAVEPDQPIIYVNTVFEMVTGYRAEEVLGGNCRFLQCRGPFAKRAHPLVDSMVVSEIRKCIDEGIEFQGELLNFRKDGSPLMNRLRLTPIYGDDDTITHIIGIQFFIETDIDLGP
B4: in data set [2], the Kd was below 200 nM and the “stoichiometry N” value was 2.

B5: ZTL 29–165 G46S:G80R (domain or fragment, Arabidopsis thaliana, UniProt Q94BT6 29-165, looked up)
chain: GGPIPYPVGNLLHTAPCSFVVTDAVEPDQPIIYVNTVFEMVTGYRAEEVLGRNCRFLQCRGPFAKRRHPLVDSMVVSEIRKCIDEGIEFQGELLNFRKDGSPLMNRLRLTPIYGDDDTITHIIGIQFFIETDIDLGP
On to B5, for which the “stoichiometry N” value in data set [1] was determined as 2.

B6: ZTL 29–165 G80R (domain or fragment, Arabidopsis thaliana, UniProt Q94BT6 29-165, looked up)
chain: GGPIPYPVGNLLHTAPCGFVVTDAVEPDQPIIYVNTVFEMVTGYRAEEVLGRNCRFLQCRGPFAKRRHPLVDSMVVSEIRKCIDEGIEFQGELLNFRKDGSPLMNRLRLTPIYGDDDTITHIIGIQFFIETDIDLGP
notes: Tested by SEC in dark and light state
As for B6, in data set [1], the “stoichiometry N” value came out at 2.

B7: ZTL 29–165 V48I:G80R (domain or fragment, Arabidopsis thaliana, UniProt Q94BT6 29-165, looked up)
chain: GGPIPYPVGNLLHTAPCGFIVTDAVEPDQPIIYVNTVFEMVTGYRAEEVLGRNCRFLQCRGPFAKRRHPLVDSMVVSEIRKCIDEGIEFQGELLNFRKDGSPLMNRLRLTPIYGDDDTITHIIGIQFFIETDIDLGP
notes: Crystallised in the dark state (5SVV) and in the light state with the C4a adduct between C82 and FMN (5SVW)
As to B7, in data set [1], the “stoichiometry N” value was 2.

Source of the values: publication PMC5370183, “Kinetics of the LOV domain of ZEITLUPE determine its circadian function in Arabidopsis” (eLife, 2017).
